{
  "source": "patent US20050106145A1",
  "key": {"human tenascin-C (human) [1]": {"molecular_target": "human tenascin-C (human) (UniProt P24821)", "sequence (P24821 23-2201 limits assumed)": "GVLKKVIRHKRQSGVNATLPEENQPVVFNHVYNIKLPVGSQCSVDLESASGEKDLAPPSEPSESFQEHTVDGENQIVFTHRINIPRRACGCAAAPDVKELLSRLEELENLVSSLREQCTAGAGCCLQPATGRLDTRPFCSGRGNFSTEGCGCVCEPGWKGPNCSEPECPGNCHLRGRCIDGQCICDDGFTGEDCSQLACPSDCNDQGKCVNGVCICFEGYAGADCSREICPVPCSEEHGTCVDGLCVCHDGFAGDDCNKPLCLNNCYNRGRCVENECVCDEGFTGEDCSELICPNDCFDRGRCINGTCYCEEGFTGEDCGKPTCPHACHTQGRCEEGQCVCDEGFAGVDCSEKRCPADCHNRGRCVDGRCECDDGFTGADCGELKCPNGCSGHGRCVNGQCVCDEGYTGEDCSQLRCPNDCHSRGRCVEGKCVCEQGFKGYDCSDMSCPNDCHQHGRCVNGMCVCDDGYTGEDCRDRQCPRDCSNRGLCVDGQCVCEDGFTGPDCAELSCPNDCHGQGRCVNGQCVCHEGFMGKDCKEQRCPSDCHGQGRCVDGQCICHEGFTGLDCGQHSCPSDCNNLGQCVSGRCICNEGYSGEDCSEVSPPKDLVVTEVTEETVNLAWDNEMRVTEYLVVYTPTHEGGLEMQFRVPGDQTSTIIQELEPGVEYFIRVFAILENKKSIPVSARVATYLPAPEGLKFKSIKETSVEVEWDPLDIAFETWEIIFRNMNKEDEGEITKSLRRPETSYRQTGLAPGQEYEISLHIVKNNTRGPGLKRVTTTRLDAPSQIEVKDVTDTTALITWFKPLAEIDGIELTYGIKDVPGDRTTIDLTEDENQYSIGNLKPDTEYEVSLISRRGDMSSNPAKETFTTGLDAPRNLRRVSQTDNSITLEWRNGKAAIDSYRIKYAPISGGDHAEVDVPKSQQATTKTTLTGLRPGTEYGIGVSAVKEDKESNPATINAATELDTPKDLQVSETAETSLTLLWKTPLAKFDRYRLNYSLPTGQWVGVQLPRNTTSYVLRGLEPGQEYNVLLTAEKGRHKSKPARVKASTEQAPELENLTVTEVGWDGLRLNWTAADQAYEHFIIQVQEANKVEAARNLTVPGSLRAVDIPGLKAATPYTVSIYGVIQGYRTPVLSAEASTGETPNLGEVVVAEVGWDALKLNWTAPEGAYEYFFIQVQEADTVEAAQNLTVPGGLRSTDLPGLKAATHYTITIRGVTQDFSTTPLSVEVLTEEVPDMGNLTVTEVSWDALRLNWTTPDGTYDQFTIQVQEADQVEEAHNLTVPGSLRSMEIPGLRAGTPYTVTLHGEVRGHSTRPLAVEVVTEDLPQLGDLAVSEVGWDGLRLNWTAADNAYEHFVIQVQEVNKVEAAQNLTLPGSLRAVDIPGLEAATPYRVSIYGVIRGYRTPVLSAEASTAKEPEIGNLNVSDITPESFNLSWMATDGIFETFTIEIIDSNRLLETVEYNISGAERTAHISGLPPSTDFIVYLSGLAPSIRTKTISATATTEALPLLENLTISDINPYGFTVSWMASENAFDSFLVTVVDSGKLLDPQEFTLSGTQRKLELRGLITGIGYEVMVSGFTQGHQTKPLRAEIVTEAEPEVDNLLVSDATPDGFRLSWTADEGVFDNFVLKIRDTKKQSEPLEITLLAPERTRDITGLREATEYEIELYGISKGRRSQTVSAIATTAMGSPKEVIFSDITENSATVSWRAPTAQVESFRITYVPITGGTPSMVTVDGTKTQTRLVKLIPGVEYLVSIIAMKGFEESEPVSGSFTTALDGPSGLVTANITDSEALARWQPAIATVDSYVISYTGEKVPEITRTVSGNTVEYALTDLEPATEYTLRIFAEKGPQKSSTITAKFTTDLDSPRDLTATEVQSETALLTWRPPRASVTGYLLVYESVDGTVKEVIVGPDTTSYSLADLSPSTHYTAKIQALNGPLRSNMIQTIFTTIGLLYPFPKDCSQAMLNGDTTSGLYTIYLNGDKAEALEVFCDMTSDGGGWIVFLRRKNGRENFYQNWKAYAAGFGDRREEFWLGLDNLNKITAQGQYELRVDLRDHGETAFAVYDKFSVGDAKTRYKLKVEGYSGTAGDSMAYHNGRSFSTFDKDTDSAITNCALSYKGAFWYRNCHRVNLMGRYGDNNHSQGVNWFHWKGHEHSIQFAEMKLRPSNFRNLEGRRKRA", "assay": "BIAcore"}, "human tenascin-C (human) [2]": {"molecular_target": "human tenascin-C (human) (UniProt P24821)", "assay": "ELISA, tenascin 5 µg/ml"}},
  "data": [
    {"substance": "BC4 anti-tenascin monoclonal antibody", "values": [
      {"measurement": "Kd", "setting": "human tenascin-C (human) [1]", "result": 4.9, "unit": "nM"},
      {"measurement": "EC50 (read off the curve)", "setting": "human tenascin-C (human) [2]", "result": 0.2, "unit": "µg/mL"}
    ]}
  ]
}
